Measurements published in patent US20160303245A1 (UNIVERSITY OF COPENHAGEN, published 2016).
Like-named read-outs stand apart in the source and are kept apart here. *1 amine or outer side, *2 acyl side, *3 side chain or, on linkers, in order; H or OH if unused. Where no end group is shown, it is not given here. The star is where a group is joined. γGlu = O=C(O)[C@H](CCC(=O)[*:2])N[*:1]; Stearoyl = CCCCCCCCCCCCCCCCCC(=O)*; Lauroyl = CCCCCCCCCCCC(=O)*; NPEG4 = not defined here; Ava = NCCCCC(=O)O; GABA = NCCCC(=O)O

Key:
[1] = biological target: T1, Human Serum Albumin (human, UniProt P02768 25-609); experiment: calculated from KD at 588 µM HSA (equation 2)
T1 construct: Bought reagent; also called HSA
Description: (§1) The assay kit consisted of prefilled wells with increasing concentrations of immobilized HSA as well as two control wells without HSA. The HSA had been immobilized in a random fashion to ensure that all binding sites on HSA were available. To conduct the assay, the wells were incubated with a known concentration of the tested compounds, and the unbound amount of compound was quantified using analytical RP-HPLC (C8 column). The fraction of unbound drug (fᵤ) for each data point was calculated from the RP-HPLC data by comparison to a control sample without HSA.

[2] = biological target: T2, PSD-95 PDZ1-2 (UniProt P78352 61-249, limits assumed); experiment: FP competition vs dimeric fluorescent probe, TBS
T2 construct: domain: PDZ1-2; also called PDZ1-2 of PSD-95
T2 sequence (P78352 61-249 limits assumed): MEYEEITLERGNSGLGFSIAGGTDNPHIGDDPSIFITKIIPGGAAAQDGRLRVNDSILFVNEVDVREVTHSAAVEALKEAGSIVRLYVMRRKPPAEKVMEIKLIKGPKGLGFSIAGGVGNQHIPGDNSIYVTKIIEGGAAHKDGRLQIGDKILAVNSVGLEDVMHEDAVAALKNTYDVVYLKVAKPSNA

[3] = biological target: T1, Human Serum Albumin; experiment: calculated from KD(HSA) at 150 µM HSA (equation 2)
[4] = biological target: T2, PSD-95 PDZ1-2; experiment: FP competition, TBS + 1% HSA, corrected for fu (free ligand)
Description: (§2) The FP values were fitted to a one site competition (variable slope) model in GraphPad Prism. […] The modified FP assay was conducted as described above with 1% HSA in the assay.

[5] = biological target: T2, PSD-95 PDZ1-2; experiment: FP competition vs dimeric fluorescent probe, TBS + 1% HSA (apparent)
[6] = biological target: T1, Human Serum Albumin; experiment: Transil XL HSA binding kit (immobilized HSA), unbound compound by RP-HPLC
Description: as §1

[7] = biological target: T1, Human Serum Albumin; experiment: calculated from KD(HSA) at 150 µM HSA (equation 2); remark: listed apart in the source
[8] = biological target: T1, Human Serum Albumin; experiment: Transil XL HSA binding kit (immobilized HSA), unbound compound by RP-HPLC; remark: listed apart in the source
Description: as §1

[9] = biological target: T2, PSD-95 PDZ1-2; experiment: FP competition, TBS + 1% HSA
Description: as §2
The synthesized FA-linked dimeric ligands were evaluated for their affinity to PSD-95 PDZ1-2 in the FP assay.

[10] = biological target: T2, PSD-95 PDZ1-2; experiment: FP competition vs dimeric fluorescent probe, TBS; remark: listed apart in the source
[11] = biological target: T2, PSD-95 PDZ1-2; experiment: FP competition, TBS + 1% HSA, corrected for fu (free ligand); remark: listed apart in the source
[12] = biological target: T2, PSD-95 PDZ1-2; experiment: FP competition vs dimeric fluorescent probe, TBS + 1% HSA (apparent); remark: listed apart in the source
Description: as §2

fb (%), fraction bound to HSA [1] [%] | Ki [2] [nM] | fu (%), fraction unbound [3] [%] | Ki [4] [nM] | Ki [5] [nM] | Kd [6] [nM] | fu (%), fraction unbound [7] [%] | Kd [8] [nM] | fold affinity loss in TBS+HSA [9] [fold] | fold lower apparent affinity than the dimeric ligands linked to the shorter FAs (C12:0 or C11:0-COOH) [9] [fold] | Ki [10] [nM] | Ki [11] [nM] | Ki [12] [nM] | Binder
95.8 | 30.2 | 14.7 | 2.4 | 24 | 25800 | – | – | – | – | – | – | – | {Lauroyl-γGlu-NPEG4}-IETAV (not fully specified; reading uncertain; also: dimer: two chains joined at N-termini through NPEG4, Synthetic dimer NPEG4(IETAV)2 with fatty acid on the linker nitrogen; also called compound 5) [FA-linked dimeric ligand 5]
90.1 | 33.7 | 30.1 | 7 | 26.4 | 64600 | – | – | – | – | – | – | – | {C11:0‑COOH acyl-γGlu-NPEG4}-IETAV (not fully specified; reading uncertain; also: dimer: two chains joined at N-termini through NPEG4, linker taken from row above (blank cell), Synthetic dimer NPEG4(IETAV)2 with fatty acid on the linker nitrogen; also called compound 6) [FA-linked dimeric ligand 6]
77.6 | 14.3 | 50.7 | 4.1 | 9.7 | 154000 | – | – | – | – | – | – | – | IETAV (also: dimer: two peptides joined by a linker, no fatty acid, also called dimeric ligand UCCB01-125) [UCCB01-125]
96.2 | 11.5 | 8.3 | 250 | 2930 | 23500 | – | – | – | > 50 | – | – | – | {C17:0‑COOH acyl-Ava-NPEG4}-IETAV (not fully specified; reading uncertain; also: dimer: two chains joined at N-termini through NPEG4, linker taken from rows above (blank cell), Synthetic dimer NPEG4(IETAV)2 with fatty acid on the linker nitrogen; also called compound 12) [FA-linked dimeric ligand 12]
94.5 | 9.2 | 18.6 | 669 | 3590 | 34300 | – | – | – | > 50 | – | – | – | {C17:0‑COOH acyl-γGlu-NPEG4}-IETAV (not fully specified; reading uncertain; also: dimer: two chains joined at N-termini through NPEG4, linker taken from rows above (blank cell), Synthetic dimer NPEG4(IETAV)2 with fatty acid on the linker nitrogen; also called compound 8) [FA-linked dimeric ligand 8]

More lines, now with the values behind:

Binder | fb (%), fraction bound to HSA [1] [%] | Ki [2] [nM] | fu (%), fraction unbound [3] [%] | Ki [4] [nM] | Ki [5] [nM] | Kd [6] [nM] | fu (%), fraction unbound [7] [%] | Kd [8] [nM] | fold affinity loss in TBS+HSA [9] [fold] | fold lower apparent affinity than the dimeric ligands linked to the shorter FAs (C12:0 or C11:0-COOH) [9] [fold] | Ki [10] [nM] | Ki [11] [nM] | Ki [12] [nM]
{C11:0‑COOH acyl-GABA-NPEG4}-IETAV (not fully specified; reading uncertain; also: dimer: two chains joined at N-termini through NPEG4, linker taken from row above (blank cell), Synthetic dimer NPEG4(IETAV)2 with fatty acid on the linker nitrogen; also called compound 2) [FA-linked dimeric ligand 2] | 92.3 | 15.4 | 24.7 | 5.5 | 27.9 | 49300 | – | – | – | – | – | – | –
{Lauroyl-GABA-NPEG4}-IETAV (not fully specified; reading uncertain; also: dimer: two chains joined at N-termini through NPEG4, Synthetic dimer NPEG4(IETAV)2 with fatty acid on the linker nitrogen; also called compound 1) [FA-linked dimeric ligand 1] | 95.7 | 13.6 | 15.1 | 3.2 | 27.2 | 26600 | – | – | – | – | – | – | –
{Stearoyl-GABA-NPEG4}-IETDV (not fully specified; reading uncertain; also: dimer: two chains joined at N-termini through NPEG4, IETDV analogue of compound 3, synthesized analogously to 1-12; also called compound 13) [FA-linked dimeric ligand 13] | – | – | – | – | – | – | 35.6 | 83000 | – | – | – | – | –
{Stearoyl-Ava-NPEG4}-IETAV (not fully specified; reading uncertain; also: dimer: two chains joined at N-termini through NPEG4, linker taken from rows above (blank cell), Synthetic dimer NPEG4(IETAV)2 with fatty acid on the linker nitrogen; also called compound 11) [FA-linked dimeric ligand 11] | 97.9 | 26.5 | 7.8 | 16.8 | 1890 | 12700 | – | – | 50 | > 50 | – | – | –
IETAV (not fully specified; also: dimer: N-termini of two peptides joined through NPEG4 linker, Synthetic dimer NPEG4(IETAV)2 with fatty acid on the linker nitrogen; also called compound 9) [FA-linked dimeric ligand 9] | 91.4 | 20.5 | 27.1 | 2.6 | 13.4 | 55700 | – | – | – | – | – | – | –
{Stearoyl-γGlu-NPEG4}-IETAV (not fully specified; reading uncertain; also: dimer: two chains joined at N-termini through NPEG4, Synthetic dimer NPEG4(IETAV)2 with fatty acid on the linker nitrogen; also called compound 7) [FA-linked dimeric ligand 7] | 98.9 | 17 | 4.3 | 59.1 | 1390 | 6800 | 4.3 | 6800 | 50 | > 50 | 17 | 59.1 | 1390
{Stearoyl-GABA-NPEG4}-IETAV (not fully specified; reading uncertain; also: dimer: two chains joined at N-termini through NPEG4, Synthetic dimer NPEG4(IETAV)2 with fatty acid on the linker nitrogen; also called compound 3) [FA-linked dimeric ligand 3] | 99.2 | 11.1 | 3.1 | 57.2 | 1890 | 4800 | 3.1 | 4800 | 50 | > 50 | 11.1 | 57.2 | 1890
{C17:0‑COOH acyl-GABA-NPEG4}-IETAV (not fully specified; reading uncertain; also: dimer: two chains joined at N-termini through NPEG4, Synthetic dimer NPEG4(IETAV)2 with fatty acid on the linker nitrogen; also called compound 4) [FA-linked dimeric ligand 4] | 96.5 | 11.4 | 11.5 | 654 | 5720 | 19400 | 11.5 | 19400 | – | > 50 | 11.4 | 654 | 5720
{C11:0‑COOH acyl-Ava-NPEG4}-IETAV (not fully specified; reading uncertain; also: dimer: two chains joined at N-termini through NPEG4, linker taken from row above (blank cell), Synthetic dimer NPEG4(IETAV)2 with fatty acid on the linker nitrogen; also called compound 10) [FA-linked dimeric ligand 10] | 71 | 13.9 | 61.5 | 10.9 | 18.5 | 240000 | – | – | – | – | – | – | –
